# Assays:
# [1] = molecular target: bovine serum albumin (BSA, Sigma) (bovine) (UniProt P02769); experiment: ELISA, serum albumin coated, FNCBD-EGF (concentration not given), detection with anti-FNCBD monoclonal antibody
# [2] = molecular target: bovine serum albumin (BSA, Sigma) (bovine) (UniProt P02769); experiment: ELISA, serum albumin coated, 0.1 µg/ml FNCBD-FGF, detection with anti-FNCBD monoclonal antibody
# UniProt P02769, sequence (P02769 25-607 limits assumed): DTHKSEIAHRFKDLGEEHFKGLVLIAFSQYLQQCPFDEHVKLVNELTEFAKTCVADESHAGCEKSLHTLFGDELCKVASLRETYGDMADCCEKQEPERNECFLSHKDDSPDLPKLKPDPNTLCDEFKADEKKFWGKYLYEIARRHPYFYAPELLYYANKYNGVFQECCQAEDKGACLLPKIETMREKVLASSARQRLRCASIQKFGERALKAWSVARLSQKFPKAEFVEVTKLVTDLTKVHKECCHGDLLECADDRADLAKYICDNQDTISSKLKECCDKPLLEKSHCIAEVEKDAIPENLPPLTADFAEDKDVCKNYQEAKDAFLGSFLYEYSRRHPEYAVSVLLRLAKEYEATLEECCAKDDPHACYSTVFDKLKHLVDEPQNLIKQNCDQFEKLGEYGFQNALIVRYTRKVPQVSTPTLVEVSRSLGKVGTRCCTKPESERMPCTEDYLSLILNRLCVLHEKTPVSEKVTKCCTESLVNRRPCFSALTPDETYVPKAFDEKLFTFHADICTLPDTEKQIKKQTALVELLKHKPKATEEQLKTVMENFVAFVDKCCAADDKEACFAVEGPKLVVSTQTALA
substance,measurement,setting,value
human FNCBD/human EGF hybrid polypeptide (FNCBD-EGF),absorption at 492 nm (absorption (492 nm)),[1],0.11
human FNCBD/human bFGF hybrid polypeptide (FNCBD-FGF),absorption at 492 nm (absorption (492 nm)),[2],0.27

# Reference: US20020102709A1
